Measured values taken from paper PMC9605926, “Safety of [^177Lu]Lu-NeoB treatment: a preclinical study characterizing absorbed dose and acute, early, and late organ toxicity” (European Journal of Nuclear Medicine and Molecular Imaging, 2022).
Values joined by “and” are separate entries in the source; they are usually repeats but may differ in a detail not shown here. Identical values can stand only once.

How the values were obtained:
healthy Balb/c mice = test: Toxicity study, clinical chemistry; format: in vivo, mouse; conditions: 5, 11, 19, 30, 43 wk, mean±SD
Procedure: Five different experimental groups (10 male and 10 female healthy animals per group; n = 100) were included in the radiotoxicity study and treated as follows: control group 1: 3 × vehicle (PBS + kolliphor HS 15 (1 mg/mL)); control group 2: 3 × 1200 pmol [^175Lu]Lu-NeoB; treatment group 1: 3 × 40 MBq/400 pmol [^177Lu]Lu-NeoB; treatment group 2: 3 × 80 MBq/800 pmol [^177Lu]Lu-NeoB; and treatment group 3: 3 × 120 MBq/1200 pmol [^177Lu]Lu-NeoB.
Animals received 3 injections with an interval of 7 days between each injection.
In addition, the following clinical chemistry parameters were measured: sodium, potassium chloride, calcium, glucose, creatinine, urea, alanine aminotransferase (ALT), aspartate aminotransferase (AST), alkaline phosphatase (ALP), amylase, lipase, and cholesterol, using the Roche/Hitachi cobas c systems according to the standard protocol. To reach the volume necessary for measuring the clinical chemistry parameters, the blood plasma was diluted 3–5 times with demineralized water.

[1] = Toxicity study, body weight (same groups as A3); format: in vivo, mouse
Procedure: Throughout the study, the animals were observed daily to check for physical signs of toxicity and signs of discomfort, and animals were weighed 2–3 times per week. Furthermore, at week -1, 5, 11, 19, 30, and 43, blood samples were collected by submandibular puncture from all animals that were in the study at that time point. All blood samples were analyzed for hematological parameters (hematocrit; hemoglobin; red blood cell count; white blood cell count; hemoglobin; mean cell hemoglobin concentration; mean cell volume; platelet count) on the scilVet abc + counter (Covetrus).
Statistical analysis was performed using GraphPad PRISM software (version 5). Significance levels were set at 5%. A simple binary logistic regression analysis was performed to determine a dose–effect relation between the absorbed dose and the histopathological findings in the kidneys using the log-likelihood ratio test as a significance indicator. The weight gain over time of control group 2 and treatment groups 1, 2, and 3 was compared to control group 1 by performing a two-way multiple comparison analysis of variance (ANOVA) with a Bonferroni correction. Significant outliers in the blood values set were detected with the Grubbs’ test and excluded from the data set. At a given time point, the measurements of all study groups were compared by performing a one-way ANOVA and in case of significance a Tukey test to correct for multiple comparisons. All data are represented as mean ± standard deviation (SD).

**Q.** What does the source list for `CC(C)CC(CC(C)C)NC(=O)[C@H](Cc1cnc[nH]1)NC(=O)CNC(=O)[C@@H](NC(=O)[C@H](C)NC(=O)[C@H](Cc1c[nH]c2ccccc12)NC(=O)[C@H](CCC(N)=O)NC(=O)[C@@H](Cc1ccccc1)NC(=O)COCC(=O)Nc1ccc(CNC(=O)CN2CCN(CC(=O)O)CCN(CC(=O)O)CCN(CC(=O)O)CC2)cc1)C(C)C` [[^177Lu]Lu-NeoB, metal not drawn]?
**A.** Alk. Phosphatase (healthy Balb/c mice; female, treatment group 1): 104.70 ± 11.61 U/L and 85.71 ± 8.98 U/L and 68.75 ± 4.76 U/L and 75.00 ± 0.00 U/L and 86.67 ± 16.07 U/L; Urea (healthy Balb/c mice; female, treatment group 1): 6.84 ± 1.27 mmol/L and 7.24 ± 1.10 mmol/L and 7.29 ± 1.04 mmol/L and 7.00 ± 1.78 mmol/L and 6.00 ± 0.00 mmol/L; Alk. Phosphatase (healthy Balb/c mice; female, treatment group 2): 88.75 ± 7.50 U/L and 96.60 ± 11.73 U/L and 92.57 ± 8.90 U/L and 75.00 ± 8.16 U/L and 87.50 ± 8.66 U/L; Urea (healthy Balb/c mice; female, treatment group 2): 8.13 ± 2.95 mmol/L and 9.48 ± 0.83 mmol/L and 7.41 ± 0.62 mmol/L and 6.64 ± 1.07 mmol/L and 7.50 ± 0.71 mmol/L; Alk. Phosphatase (healthy Balb/c mice; female, treatment group 3): 96.00 ± 15.81 U/L and 93.00 ± 4.65 U/L and 81.43 ± 10.69 U/L and 90.00 ± 9.13 U/L and 110.00 ± 26.46 U/L; Urea (healthy Balb/c mice; female, treatment group 3): 8.94 ± 1.32 mmol/L and 7.97 ± 1.26 mmol/L and 8.50 ± 1.80 mmol/L and 9.25 ± 2.40 mmol/L and 8.63 ± 2.56 mmol/L; Alk. Phosphatase (healthy Balb/c mice; male, treatment group 1): 114.00 ± 8.28 U/L and 98.57 ± 4.04 U/L and 70.00 ± 0.00 U/L and 85.00 ± 10.00 U/L and 68.33 ± 20.82 U/L; Urea (healthy Balb/c mice; male, treatment group 1): 7.44 ± 0.85 mmol/L and 6.60 ± 0.60 mmol/L and 7.00 ± 0.00 mmol/L and 7.50 ± 0.00 mmol/L; Alk. Phosphatase (healthy Balb/c mice; male, treatment group 2): 75.00 ± 15.81 U/L and 112.40 ± 16.22 U/L and 96.86 ± 9.44 U/L and 85.00 ± 0.00 U/L and 80.00 ± 0.00 U/L; Urea (healthy Balb/c mice; male, treatment group 2): 7.33 ± 1.26 mmol/L and 7.46 ± 1.14 mmol/L and 7.24 ± 1.41 mmol/L and 7.13 ± 0.85 mmol/L and 8.00 ± 1.35 mmol/L; Alk. Phosphatase (healthy Balb/c mice; male, treatment group 3): 103.20 ± 13.73 U/L and 99.43 ± 5.59 U/L and 83.75 ± 7.50 U/L and 87.50 ± 8.66 U/L and 80.00 ± 17.80 U/L; Urea (healthy Balb/c mice; male, treatment group 3): 7.59 ± 1.51 mmol/L and 6.77 ± 0.71 mmol/L and 7.25 ± 0.87 mmol/L and 6.50 ± 0.00 mmol/L and 6.75 ± 1.04 mmol/L; Weight gain versus control group 1 ([1]; female treatment group 2, by the end of the study): significantly higher weight gain; Weight gain versus control groups ([1]; male treatment group 2, first half of the study): significantly less pronounced weight gain; Weight gain versus control groups ([1]; male treatment group 3, first half of the study): significantly less pronounced weight gain
